Drawing on article PMC11931385, “Structural and functional analysis of cancer-associated missense variants in the retinoblastoma protein pocket domain” (The Journal of Biological Chemistry, 2025), this text covers Kd for 2 molecules.

Substitutions are numbered along the chain they refer to. Names and notes keep the numbering of the source. No end group written: not given here. TMR = tetramethyl rhodamine dye

Common to all, as to assay: fluorescence polarisation; 37 °C, after the 25 °C reading ramped over 7 min to 37 °C and 2 min incubation; unlabeled Rb^P against 1.5 nM TMR-E2F1^TD or 7.5 nM TMR-E7^LxCxE; 25 mM Tris pH 8.0, 200 mM NaCl, 1 mM DTT, 0.1% Tween-20; apparent Kd
Common to all, as to conditions: both partners purified

Experiment [1] has as its target T1, Rb^P D697E (human, UniProt P06400 380-788, D697E).
T1 construct: also called variant 62
T1 sequence (looked up): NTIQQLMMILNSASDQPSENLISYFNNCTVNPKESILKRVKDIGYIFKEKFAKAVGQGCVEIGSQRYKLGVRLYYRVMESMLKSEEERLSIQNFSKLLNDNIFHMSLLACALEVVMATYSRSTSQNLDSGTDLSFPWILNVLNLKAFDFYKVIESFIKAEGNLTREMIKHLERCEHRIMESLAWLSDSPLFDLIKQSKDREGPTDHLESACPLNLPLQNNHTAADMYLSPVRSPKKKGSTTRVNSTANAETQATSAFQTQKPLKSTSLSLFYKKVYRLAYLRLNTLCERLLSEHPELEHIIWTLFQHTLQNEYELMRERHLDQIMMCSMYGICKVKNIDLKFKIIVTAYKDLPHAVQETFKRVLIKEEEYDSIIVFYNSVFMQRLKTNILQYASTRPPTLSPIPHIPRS

Experiment [2] addresses T2, retinoblastoma protein pocket domain (Rb^P), wild type (human, UniProt P06400 380-788).
T2 construct: also called WT Rb^P; WT
T2 sequence (looked up): T1 sequence (looked up) with E318D

Experiment [3] has as its target T3, Rb^P R451H (human, UniProt P06400 380-788, R451H).
T3 construct: also called variant 6
T3 sequence (looked up): T1 sequence (looked up) with R72H, E318D

For experiment [4], the target named is T4, Rb^P H585Y (human, UniProt P06400 380-788, H585Y).
T4 construct: also called variant 33
T4 sequence (looked up): T1 sequence (looked up) with H206Y, E318D

Experiment [5] deals with T5, Rb^P T620M (human, UniProt P06400 380-788, T620M).
T5 construct: also called variant 40
T5 sequence (looked up): T1 sequence (looked up) with T241M, E318D

B1: TMR-E2F1^TD, peptide of the E2F1 transactivation domain (peptide)
peptide: {TMR}-GEGIRDLFDCDFGDLTPLD
notes: also called E2F^TD; source: synthetic peptide, bought: GenScript
For B1, the Kd in experiment [1] was 129 nM; in experiment [2] it was 22 nM; in experiment [3], 56 nM; in experiment [4], 92 nM; in experiment [5], 59 nM.

B2: TMR-E7^LxCxE, LxCxE peptide of the E7 oncoprotein from HPV (peptide)
peptide: DLYCYEQLN
modifications: also: TMR label, position not given here
notes: source: synthetic peptide, bought: GenScript
As to B2, the Kd in experiment [1] was 46 nM; in experiment [2], 12 nM; in experiment [3], 22 nM; in experiment [4], 18 nM; in experiment [5], 15 nM.
